Our source for the stoichiometry N (Fab per trimer) values is article PMC9671094.

This assay concerns the target ApexGT2 trimer (HIV-1 isolate BG505). As to the kind of experiment: cryo-EM structure.

B1: PCT64 35S Fab (Fab, V domains shown)
VH: EVQLVESGGGLVKPGGSLRLACVGSEFTFSEAWMTWVRQAPGKGLEWVGHMRPTTEGGAKDYAAAVRGRFTIARDDSKSTLYLQMNSLKIEDTGVYYCMTGVERGDFWSDDYSQHYNTYLIDVWGKGTTVTVSS
VL: EIVLTQSPGTLSLSPGDRATLSCRATQSVGGDYFAWYQQRPGQSPRLLIYGTSRRAAGIPDRFSGSGSGTDFTLTIDRLEPEDFAVYYCRQYETSFTFGPGTKVDIK
The molecule B1 had a stoichiometry N (Fab per trimer) of 1.
